Measured values published in the nanobody polyreactivity screen of Harvey et al. (2022).

Test: yeast display, Sf9 membrane polyspecificity reagent, FACS + sequencing; frameworks hold sequencing errors
Outline: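 In a synthetic yeast display library (Saccharomyces cerevisiae BJ5465), nanobody expression was induced with galactose for 36–48 hours. FACS gates were set low and high (top ~1%) using anti-HA fluorescence for expression and streptavidin fluorescence for binding of the Sf9 membrane reagent. Each polyreactivity label is drawn from the gate of origin.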

Sequence	polyreactivity (PSR sort gate)
QVQLVESGGGLVQAGGSLRLSCAASGITFVLNVMGWNRQAPGKERELVAAISASGGRTYYADSVKGRFTISRDNAKHTVYLQMNSLKPEDTAVYYCNAVLPRYTFRSGVFEYDWGQGTQVTVSS	high polyreactivity
QVQLVESGGGLVQAGGSLRLSCAASGSTFTGNAMGWYRQAPGKERELVASINGSSGSTYYADSVKGRFTISRDNAKNTVYFQMNSLKPEDTAVYYCAKDSFLHFPRVGWVGLEYWGQGTQVTVSS	low polyreactivity
QVQLVESGGGLVQAGGSLRLTCAASGRIFRVNTMGWYRQAPGKERELVATINGRGGSTYYADSVKGRFTISRDNAKNTVYLQMNSLKPVDTSVYYCAARARTTRSATYDYWGQGTQGTVSS	high polyreactivity
QVQLVESGGGLVQAGGSLRLSCAASGLTFKVYDMGGYRQAPGKERELVAAIWSDGDTYYADSVKGRFTISRDNAKNTVYLQMNSLKPEDTAVYYCAADPVWTVHFVFGNKYDYWGQGTQVTVSS	low polyreactivity
QVQLVESGGALVQAGGSLRLSCAASGRTFNRYGMGRYRQAPGEERELVASITSGGSTNYADSVKGRFTISRDNAKNTVFLQMNSLKPEDTAVYYCAKRSIGRYPRTYDYWGQGTKVTVSS	low polyreactivity
QVQLVESAAGLVQAGGSLRLSCAASGLNSSYYAMGWYRQAPGKERELVAAISRCGSTNYADSVKGRFTISRDNGKNTLYLQMNSLKPEDTAVYYCNADEYGGSTGRKGRYNYWGQGTQVTVSS	low polyreactivity
QVQLVESGGGLVQAGGSLRLSCAASGFIFGSYAMGWYRQAPGKERELVAAISWSGASTYYADSVKGRFTISRDKAKNTVYLQMNSLKPEDTAVYYCAAVSRYGWYDYWGQGTQVTVSS	high polyreactivity
QVQLVESGGGLVQAGGSLRLSCAASGSTLGLNAMGWYRHAPRKEREFVAAISQGGTRTYYADSVKGRLTNSRDNAKNCVYLQMNSLKPEDTAVYYCAALRHRTRAASGGDYWGQGTQVNVSS	high polyreactivity
QVQLVESGGGLVQAGGSLRLSCAASGRILDVNDMGWYRQAPGKERELVAAISSGTNTYYADSVKGRFTISRDNAKNTVYLQMNSLKPEDTAVYYCAADYLGLSDADDYDYWGQGTQVTVSS	low polyreactivity
QVQLVESGGGLVQAGGSLRLSCAASGYIFGVYAMGWYRQAPGKERELVAVITVTGGSTYYADSVKGRFTISRDNAKNTVYLQMNSLKPEDTAVYYCAARGYGNLARVYHGYGYWGQGTQVTVSS	high polyreactivity
QVQLVESGGGLVQAGGSLRLSCAASGRIFYRNAMGWYRQAPGKERELVAAISGSGGSTYYADSVKGRFTISRDNAKNTVYLQMNSLKPEDTAVYYCNVDRSPTHIVGYGYWGQGTQVTVSS	low polyreactivity
QDQLVESGGGLVQAGGSLRLSCAASGSIFSKNTMGWYRQAPGKERELVAAISGSGVSTYYADSVKGRFTISRDNAKNTVYLQMNSLKPEDTAVYYCAAGPRFRYYSGWYDYWGQGTQVTVSS	high polyreactivity
QVQLVESGGGLVQAGGSLRVSCAASGRTLRSYAMGWYRQAPGKERELVAAISRSGGSTYYADSVKGRFTISRDNAKNPVYLQMNSLKPEDTSVYYCATRYLRSLDYWGQGTQVTVSS	high polyreactivity
QFQLVESGGGLVQAGGTLRLSCPATGLIFAYNTMGWYRHAPGKERELVAGITSGGSTYYADSVKGRFTISRDNAKNTVYLHLNSLKPEDSAVYYCAAAYRNWSVSFGYWGQGTQVTVSS	high polyreactivity
QVQLVESGGGLVQAGGSLRLSCAASGNIYNYAMGWYIQAPGKERELVAAIRSSDGSTYYADSVKGRFTISRDNAKNTVYLQMNSLKPEDTAVYDCARRTRRTSTYYYYGSRYYYWGQGTQVTVSS	high polyreactivity
QVQLVESGGGLVQAGGSLRLSCAASGFTFYTYAMGWYRQAPGKERELVATITGRTGSTYYADSVKGRFTISRDNAKNTVYLQMNSLKPEDTAVYYCAADWGKLHVTWFRVNYWGQGTQVTVSS	low polyreactivity
QVHHVESGGGLVQAGGILRLSCAASGFTIFKYAMGWSRQKPGKERELVATISIDGITNYADSVKGRFTISRDNAKNTVYLQMNILKPEDTAVYYCHALSLYQQLGYWGQGTQVTVSS	low polyreactivity
QVQLVESGGGLVQAGGSLRLSCAASGRTFGGNAMGWYRQAPGKERELVATIRSSSSTNYADSVKGRFTISRDNAKNTVYLQMNSLKPEDTAVYYCARRSQRGIYSMYYWGQGSQVTVSS	low polyreactivity
QVQLVESGGGLVQAGGSLRLSCAASGFTLDKYAMGSNRQAPGTERELVAAINWSGGSTYYADSVKGRFTISRDNAKNTVYLQMNSLKPEDTAVYYCNAQAYRRRRYYYWGQGTQVTVSS	high polyreactivity
QVQLVESGGGLVQAGGSLRLSCAASGRIFVHYVMGWYRQAPGKERELVAAITVSGGGTYYADSVKGRFTISRDNAKNTVYLQMNSLKPEDTAVYYCNAVPHPYDWGQGTQVTVSS	low polyreactivity
QVQLVESGGGLVQAGGSLRLSCAASGFIFLPYFMAWYRQAHGKERELVAAISGVGGITYYADSVKGRFTISRDNAKNTVYLQMNSLKPEDTAVYYCAAESSYFVALNQFYTVEFYYWGQGTQVTVSS	low polyreactivity
QVQLVESGGGLVQAGGSLRLSCAASGSIIDVYAMGWYRQAPGKERELVAAISTSGGSTFYADSVKGRFTISRDHAKNTVYLQMNSLKPEDTAVYYCNAAKYPDQWYDEYNYWGQGTQVTVSS	low polyreactivity

Sequence	polyreactivity (PSR sort gate)
QVQLVESGGGLVQAGGSLRLSSAASGFTFKYYAMGWYRQAPGKERELVARITGSSGSTYYADSVKGRFTISRDNAKNTVYLQMNSLKPEDTAVYYCAASFKFRYYRYGAYEYWGQGTQVTVSS	high polyreactivity
QVQLVESAGGLVQAGGSLRLSCAASGLIFYSYAMGWYRQAPGKERELVASITTRGSSTYYADSVKGRFTISRDNAKNTVYLQMNSLKPEDTAVYYCAADRLYYRYPPDTGYGYWGQGTQVTVSS	low polyreactivity
QVQLVESGGGLVQAGGSLRLSCAASGRIFIPYAMAWYRQAPGNERELVAAISSSGGSTYYADSVKGRFTISRDNAKNTVYLQMNSLKPEDTAVYYCSALLYWWYAYETYSSLFEYDYWGQGTLVTVSS	low polyreactivity
QVKLVESGGGLVQAGGSHRLSCPASGRIFYPYAMGWYRQAPGKESELVAAISWSTVSTYYADSVKGRFTISRDNAKNNVYLQMNSLKPEDTAVYYCAARLYFSSSLRCVDFWGQGTQVTVSS	high polyreactivity
QVQLVESGGGLVQAGGSLRISCAASGRTFPVNAMGWYRQAPGKERELVAAITWSGDSTYYADSVKGRFTISCDNAKNTVYLQMNSLKPEDTAVYYCAAAYRYGTLYYYWGQGTQVTVSS	low polyreactivity
QVQLVESGGGLVQAGGSLRLSCADSGFTFWRYAMGWYRQAPGKERELVAAISWRGSSTYYADSVKGRFTISRDIAKNTVYLQMNSLKPEDTAVYYCARYQSTYDSTYNYWGQGTQVTVSS	high polyreactivity
QVQLVESGGGLVQAGGSLRLSCAASGSTFKRYAMGWYRQAPGKERELVASISRSGGSTYYADSVKGRFTISRDNAKNTVYLQMNSLKPEDTAVYYCNARNRVYYTLSGYGYWGQGTQVTVSS	high polyreactivity
QVQLVESGGGLVQAGGSLRLICAASGSIFCYAMGWYRQAPGKERELVAGISRGGSTYYADSVKGRFTISRDNAKNTGYLKMNSLKPEDTAVYYCNTAGYYGTPYNYWGQGTQVTVSS	low polyreactivity
QVQLVESGGGLVQAGGSLRLSCAASGSTFVRNVMGWYRQAPGKERELVARISWSGTGTYYADSVKGRFTISRDNAKNTVYLQMNSLKPEDTAVYYCAARSTVYISSDYWGQGTQVTVSS	low polyreactivity
QVQLVESGGGLEQAGGRLRLSCADSRRIFGRYAMGWYRQAPGKERELVAAINQSGSTTYYADSVKGRFTISRDNAKNTVYLQMNSLKPEDTAVYYCAADGNGVDYDYWGQGTQVTVSS	low polyreactivity
QVQLVESGGGLDQAGGSLRLSCAASGIIFARNAMGWYRQAPGKERELVAAISGSGGRTYYADSVKGRFTISRDNAKNTVYLQMNSLKPEDTAVYYCAAEYTYRAVALDYWGQGTQVTVSS	high polyreactivity
QVQLVESGGGLVQAGGSLRLSCAASGSIFVFNAMGWYRQAPGKERELVAAISNGDGTNYADSVKGRFTISRDNAKNTVYLQMNSLKPEETAVYYCAAVWTTLIVIEYDYWGQGTQVTVSS	low polyreactivity
QDQLVDSGGGLVQAGGSLRLSCAASGSTFYYYTMGWYRQAPGKEGELVAAITSGGSTYYADSVKGRFTISRDNAKNTVYLQLNSLKPEDTAVYYCAADLRRNGWGFDYWGQGTQVTVSS	high polyreactivity
QVQLVESGGGLVQAGGSLRLSCAASGVILSAYAMGLYRQAPAKERELVAAITGSGGRTYYADSVKGRFTISRDNAKNTVYFQMNSLKPEDTAVNYCAARYTYVGSYTYNSWGQGPQVTVSS	high polyreactivity
QVQLVESGGGLVQAGGSLRLSCAASGSTFKRYTMGWYRQAPGKESELVAAISSSGGSTYYADSVKGRFTISRDNAKNTVYLQMNSQKPEDTAVYYCAKGYQRGRDYWGQGTQVTVSS	high polyreactivity
QVQLVDSGGGLVQAGGSLRLSCAASGRTIRYNAMGWYRQAPGKERELVAVINSNGGSTYYADSVKGRFTISRDNSKNTVYLQMNSLKPEDTAVYYCAADYIRIQEYDYWGQGTQVTVSS	low polyreactivity
QVQLVESGGGLVQAGGSLRLSCAASGSTFYNNAMGWYRQAPGKERELVAAISSGGGTYYADSVKGRFTISRDNAKNTVYLQMNSLKPEDTAVYYCAADFANTTHWGRIKRYDYWGQGTQVTVSS	low polyreactivity
QVQLGESGGGLVQAGGSLLLSSAASGFIFHNYPMGWYRQAPVKERELVAAISWSGSRTYYADSVKGRFTISRDNAKNSVYLQMNSLKPEDTAVYYCNKAPSWWDVRVPFDYWGQGTQVTVSS	low polyreactivity
QVQLVESGGGLVQAGGSLRLSCAASGSTFGVNDMGWYRQAPGKEREFVADITTSGGSTYYADSVKGRFTISRDHAKNTVYLQMNSLKPEDTAVYYCAADLWPFEHDDYWGQGTQVTVSS	low polyreactivity
QVQLVESGGGIVQAGGSLRLSCADSGFTFAFYAMGRYRQAPRKERELVAAISSGGGNTYYADSVKGRFTISRDNAKNTVYLQMNSLNPEDTAVYYCATRYISQGGYWGQGTQVTVSS	high polyreactivity
QVQLVESGGGLVQAGGSLRLSCAASGRIFPSYAMGWYRHAPGKERELVAAITSSDSTYNADSVKGRFTISRDNAKNTVYFQMNSLKPEDTAVYYCAAAYSYSGWWWFDYWGQGTQVTVSS	high polyreactivity
